Columns and labels:
[1] = molecular target: CB6 monoclonal antibody; experiment: BLI
[2] = molecular target: 4A8 monoclonal antibody; experiment: BLI

Substance	Kd [1] [nM]	Kd [2] [nM]
S1-I53-50 NP (from UniProt P0DTC2 16-685) (complex)	< 0.001	0.0736
S1-ferritin NP (from UniProt P0DTC2 16-685) (complex)	< 0.001	1.18
S1-mi3 NP (from UniProt P0DTC2 16-685) (complex)	< 0.001	< 0.001
